Publication doi:10.1101/528711

Tests used:
[1] = molecular target: Atto532-tUI (UniProt Q9UMX0); assay: other fluorescence titration
[2] = molecular target: tIVR (UniProt P45974); assay: other fluorescence titration
[3] = molecular target: Atto532-tISR (UniProt P45974); assay: other fluorescence titration
[4] = molecular target: tUI (UniProt Q9UMX0); assay: other fluorescence titration
[5] = molecular target: Atto532-tUI (UniProt Q9UMX0); assay: stopped-flow fluorescence kinetics

Sequence of tIVR (P45974 whole entry, looked up): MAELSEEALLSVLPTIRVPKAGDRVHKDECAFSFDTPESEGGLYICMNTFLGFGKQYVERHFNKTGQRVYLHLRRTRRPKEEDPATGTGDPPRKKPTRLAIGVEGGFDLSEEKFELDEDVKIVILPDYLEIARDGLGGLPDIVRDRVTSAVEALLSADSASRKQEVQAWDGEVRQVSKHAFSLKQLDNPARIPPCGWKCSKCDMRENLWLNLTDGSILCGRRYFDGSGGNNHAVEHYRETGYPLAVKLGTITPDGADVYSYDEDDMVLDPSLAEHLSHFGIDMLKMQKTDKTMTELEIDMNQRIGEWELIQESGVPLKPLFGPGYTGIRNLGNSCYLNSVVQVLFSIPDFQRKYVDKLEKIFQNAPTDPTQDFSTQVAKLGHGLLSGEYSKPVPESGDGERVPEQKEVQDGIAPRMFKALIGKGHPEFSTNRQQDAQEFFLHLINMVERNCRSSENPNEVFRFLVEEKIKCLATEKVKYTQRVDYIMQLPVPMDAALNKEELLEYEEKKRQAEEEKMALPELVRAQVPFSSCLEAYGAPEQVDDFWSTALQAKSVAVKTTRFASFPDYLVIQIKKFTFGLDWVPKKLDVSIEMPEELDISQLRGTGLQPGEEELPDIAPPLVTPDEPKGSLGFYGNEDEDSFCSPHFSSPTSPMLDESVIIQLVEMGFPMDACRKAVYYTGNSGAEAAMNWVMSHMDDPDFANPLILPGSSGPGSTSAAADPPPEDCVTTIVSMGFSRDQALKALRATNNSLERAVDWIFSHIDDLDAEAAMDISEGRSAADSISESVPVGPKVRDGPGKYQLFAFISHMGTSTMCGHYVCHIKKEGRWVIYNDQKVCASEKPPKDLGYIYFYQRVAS
Sequence of Atto532-tUI (Q9UMX0 whole entry, looked up): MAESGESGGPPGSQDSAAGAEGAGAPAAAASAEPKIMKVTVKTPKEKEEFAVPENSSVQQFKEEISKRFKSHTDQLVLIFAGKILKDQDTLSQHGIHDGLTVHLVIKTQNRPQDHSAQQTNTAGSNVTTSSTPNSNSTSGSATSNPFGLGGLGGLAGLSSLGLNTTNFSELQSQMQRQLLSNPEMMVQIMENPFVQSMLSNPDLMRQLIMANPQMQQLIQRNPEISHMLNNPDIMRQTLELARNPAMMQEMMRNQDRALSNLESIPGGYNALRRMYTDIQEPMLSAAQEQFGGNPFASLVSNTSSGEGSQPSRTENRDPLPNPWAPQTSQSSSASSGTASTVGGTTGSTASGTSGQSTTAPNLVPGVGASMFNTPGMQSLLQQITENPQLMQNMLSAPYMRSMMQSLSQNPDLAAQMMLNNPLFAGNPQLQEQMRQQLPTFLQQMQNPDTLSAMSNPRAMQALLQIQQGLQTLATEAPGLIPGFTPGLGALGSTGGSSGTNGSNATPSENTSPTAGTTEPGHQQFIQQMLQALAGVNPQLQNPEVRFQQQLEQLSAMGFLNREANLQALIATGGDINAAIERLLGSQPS
Sequence of Nedd8 (Q15843 1-76): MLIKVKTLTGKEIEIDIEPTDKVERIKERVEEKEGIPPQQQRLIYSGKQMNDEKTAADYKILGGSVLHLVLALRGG
Sequence of Atto532-tISR (P45974 whole entry, looked up): as the sequence (P45974 whole entry, looked up) above
Sequence of tUI (Q9UMX0 whole entry, looked up): as the sequence (Q9UMX0 whole entry, looked up) above

Row | Substance | fold higher affinity for Ub than Nedd8 [1] [fold] | fold preference for Ub over Nedd8 [2] [fold] | Kd [3] [nM] | Kd [1] [nM] | Kd [2] [nM] | Ki [2] [nM] | Ki [4] [nM] | Kd [5] [nM]
1 | Nedd8 (from UniProt Q15843 1-76) (natural protein) | 120 | 3000 | – | – | – | – | – | –
2 | ubiquitin (from UniProt P0CG48 1-76) (natural protein) | – | – | 24.3 | 0.066 | 25.4 | 19 | 0.194 | 0.0564
